Measured values from patent US20220135684A1 (Xencor, published 2022).

How the values were obtained:
[1] = target: T1, cell-surface CD28 on human PBMCs (human, UniProt P10747 19-220); assay: flow cytometry on human PBMCs, anti-human Fc secondary
T1 construct: whole, on cells

human CD28 [2] = target: T2, human CD28 (human, UniProt P10747 19-152); assay: Octet (BLI), scFv arm in the bsAb; value told in the text
T2 construct: also called Cluster of Differentiation 28; Tp44

human CD28 [3] = target: T2, human CD28; assay: Octet (BLI), scFv arm in a bsAb; value told in the text
human PDL1 antigen = target: T3, human PDL1 antigen (human, UniProt Q9NZQ7 19-238); assay: Biacore (SPR), Fab arm in the bsAb; value told in the text
T3 construct: they are put here

B1: XENP28428 (antibody, V domains shown)
VH: EVQLLESGGGLVQPGGSLRLSCAASGFTFSSYAMSWVRQAPGKGLEWVSTISGSGDSTYYADSVKGRFTISRDNSKNTLYLQMNSLRAEDTAVYYCAKSGPGLRQVGFDYWGQGTLVTVSS
VL: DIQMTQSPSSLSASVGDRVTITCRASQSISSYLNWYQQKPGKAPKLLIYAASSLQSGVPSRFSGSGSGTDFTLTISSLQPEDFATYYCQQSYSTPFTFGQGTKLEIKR
notes: Bivalent mAb, IgG1 backbone with E233P/L234V/L235A/G236del/S267K ablation variant; also called anti-CD28 mAb based on clone 1A7; parental αCD28 mAb 1A7; copies: 2 + 2
B1: binds [1].

B2: XENP37261 (bispecific antibody)
heavy: EVQLLESGGGLVQPGGSLRLSCAASGFTFSSYDMSWVRQAPGKRLEWVSTISSGGSFTHYPDSVKGRFTISRDNSKNTLYLQMNSLRAEDTAVYYCVRRSGDWYFDVWGAGTTVTVSSASTKGPSVFPLAPSSKSTSGGTAALGCLVKDYFPEPVTVSWNSGALTSGVHTFPAVLQSSGLYSLSSVVTVPSSSLGTQTYICNVNHKPSDTKVDKKVEPKSCDKTHTCPPCPAPPVAGPSVFLFPPKPKDTLMISRTPEVTCVVVDVKHEDPEVKFNWYVDGVEVHNAKTKPREEEYNSTYRVVSVLTVLHQDWLNGKEYKCKVSNKALPAPIEKTISKAKGQPREPQVYTLPPSREEMTKNQVSLTCDVSGFYPSDIAVEWESDGQPENNYKTTPPVLDSDGSFFLYSKLTVDKSRWEQGDVFSCSVMHEALHNHYTQKSLSLSPGK
scFv-Fc: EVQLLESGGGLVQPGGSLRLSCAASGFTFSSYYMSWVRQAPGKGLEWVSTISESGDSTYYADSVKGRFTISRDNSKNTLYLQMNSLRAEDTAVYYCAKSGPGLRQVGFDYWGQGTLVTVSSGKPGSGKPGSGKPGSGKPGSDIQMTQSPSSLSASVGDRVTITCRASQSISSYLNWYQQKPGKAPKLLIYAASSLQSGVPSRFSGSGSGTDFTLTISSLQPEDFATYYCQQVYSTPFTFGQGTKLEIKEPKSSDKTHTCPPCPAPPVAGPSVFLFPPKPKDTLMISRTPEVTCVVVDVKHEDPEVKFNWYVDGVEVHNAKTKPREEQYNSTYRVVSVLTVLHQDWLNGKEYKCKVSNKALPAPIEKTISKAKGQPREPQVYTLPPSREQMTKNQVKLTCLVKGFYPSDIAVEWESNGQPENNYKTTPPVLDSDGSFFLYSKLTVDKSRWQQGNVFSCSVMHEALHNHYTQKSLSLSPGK
light: EIVLTQSPGTLSLSPGERATLSCRVSSSISSSNLHWYQQKPGQSPRPLIYGTSNLASGVPVRFSGSGSGTDYTLTISRLEPEDFAVYYCQQWSSYPLYTFGGGTKVEIKRTVAAPSVFIFPPSDEQLKSGTASVVCLLNNFYPREAKVQWKVDNALQSGNSQESVTEQDSKDSTYSLSSTLTLSKADYEKHKVYACEVTHQGLSSPVTKSFNRGEC
notes: 1+1 Fab-scFv-Fc format; also called αPDL1×αCD28 bsAb; 1A7_H1.14_L1.71
For B2, the Kd (human CD28 [2]) was 36 nM and the Kd (human CD28 [3]) was 37 nM.

B3: XENP38514 (bispecific antibody)
heavy: EVQLLESGGGLVQPGGSLRLSCAASGFTFSVYDMSWVRQAPGKRLEWVSTISSGGSFTHYPDSVKGRFTISRDNSKNTLYLQMNSLRAEDTAVYYCVRRSLDWYFDVWGAGTTVTVSSASTKGPSVFPLAPSSKSTSGGTAALGCLVKDYFPEPVTVSWNSGALTSGVHTFPAVLQSSGLYSLSSVVTVPSSSLGTQTYICNVNHKPSDTKVDKKVEPKSCDKTHTCPPCPAPPVAGPSVFLFPPKPKDTLMISRTPEVTCVVVDVKHEDPEVKFNWYVDGVEVHNAKTKPREEEYNSTYRVVSVLTVLHQDWLNGKEYKCKVSNKALPAPIEKTISKAKGQPREPQVYTLPPSREEMTKNQVSLTCDVSGFYPSDIAVEWESDGQPENNYKTTPPVLDSDGSFFLYSKLTVDKSRWEQGDVFSCSVMHEALHNHYTQKSLSLSPGK
scFv-Fc: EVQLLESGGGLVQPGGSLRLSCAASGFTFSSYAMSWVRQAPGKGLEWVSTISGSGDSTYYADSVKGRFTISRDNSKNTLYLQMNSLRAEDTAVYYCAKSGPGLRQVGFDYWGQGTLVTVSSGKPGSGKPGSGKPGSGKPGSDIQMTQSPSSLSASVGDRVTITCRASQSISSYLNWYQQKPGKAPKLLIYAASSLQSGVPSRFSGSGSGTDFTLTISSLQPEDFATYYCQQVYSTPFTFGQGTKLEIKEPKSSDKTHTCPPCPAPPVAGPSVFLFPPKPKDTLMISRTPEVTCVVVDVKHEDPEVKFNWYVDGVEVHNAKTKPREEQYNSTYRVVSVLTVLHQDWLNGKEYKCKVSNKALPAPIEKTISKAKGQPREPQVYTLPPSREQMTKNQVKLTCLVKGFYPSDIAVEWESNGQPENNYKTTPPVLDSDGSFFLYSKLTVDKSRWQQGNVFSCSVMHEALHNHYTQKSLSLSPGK
light: EIVLTQSPGTLSLSPGERATLSCRVSSSIQSTNLHWYQQKPGQSPRPLIYGTSVLATGVPVRFSGSGSGTDYTLTISRLEPEDFAVYYCQQWSSYPLYTFGGGTKVEIKRTVAAPSVFIFPPSDEQLKSGTASVVCLLNNFYPREAKVQWKVDNALQSGNSQESVTEQDSKDSTYSLSSTLTLSKADYEKHKVYACEVTHQGLSSPVTKSFNRGEC
Work on B3 yielded a Kd (human PDL1 antigen) of 0.17 nM.

B4: XENP27181 (antibody, human IgG1, kappa, V domains shown)
VH: QVQLQESGPGLVKPSETLSLTCAVSGFSLTSYGVHWIRQPPGKGLEWLGVIWPGGGTNFNSALMSRLTISEDTSKNQVSLKLSSVTAADTAVYYCARDRAYGNYLYAMDYWGQGTLVTVSS
VL: DIQMTQSPSSLSASVGDRVTITCRASESVEYYVTSLMQWYQQKPGKAPKLLIYAASNVDSGVPSRFSGSGSGTDFTLTISSLQPEDIATYYCQQSRKVPFTFGGGTKVEIKR
notes: Bivalent mAb, IgG1 backbone with E233P/L234V/L235A/G236del/S267K ablation variant; also called HuTN228; prior art anti-CD28 mAb HuTN228; copies: 2 + 2
B4: binds [1].
